Drawing on PMC10473253, “A novel salt- and organic solvent-tolerant phosphite dehydrogenase from Cyanothece sp. ATCC 51142” (Frontiers in Bioengineering and Biotechnology, 2023), this text covers Km for one protein.

Holding throughout (assay): purified protein
What all share (type): biochemical, Crocosphaera subtropica

Substrate in series [1]: NC(=O)c1ccc[n+]([C@@H]2O[C@H](COP(=O)(O)OP(=O)(O)OC[C@H]3O[C@@H](n4cnc5c(N)ncnc54)[C@H](O)[C@@H]3O)[C@@H](O)[C@H]2O)c1
The following applies: 1.0 mM phosphite, 100 mM MOPS pH 7.3, 37°C, text b35 prints kcat 2.24 ± 0.15.

Substrate in series [2]: NC(=O)c1ccc[n+]([C@@H]2O[C@H](COP(=O)(O)OP(=O)(O)OC[C@H]3O[C@@H](n4cnc5c(N)ncnc54)[C@H](OP(=O)(O)O)[C@@H]3O)[C@@H](O)[C@H]2O)c1
The following applies: 1.0 mM phosphite, 100 mM MOPS pH 7.3, 37°C.

Substrate in series [3]: O=[PH](O)O
The note with it: 1.0 mM NAD+ as co-substrate, 100 mM MOPS pH 7.3, 37°C.

B1: Ct-PtxD (Crocosphaera subtropica ATCC 51142) (protein)
chain: MNQKPKVVITHWVHPEIIDYLTPHCELILNQTKETLTREEVINRSKDAQGLMVFMPDYIDVNFLEACPQLKVISGALRGYDNFDVEACTKRNIWFTIVPDLLAAPTAELTIGLLLILARRMVEGDRLIRSGNFQGWKPQLYSTGLLNKTLGIIGMGKLGKALTKRLMGFDMTLLYHDKITLTSQQERDWKITKTSLEELLTKSDYVVLMVPLVPDTYHLINENSLKMMKPNSFLINPCRGSIVDETAVATAIKSGHLAGYAADVFEMEDWAIANRPQSINQTLLTDINHTFFTPHLGSAVNEVRRDIALEAAKNIIEVLSENRPQGAVNGIV
notes: full-length, 332 residues; pET-21b(+) NdeI/XhoI, His-tagged, E. coli Rosetta2 (DE3) pLysS
Consider B1, for which the Km (commonly the substrate concentration at which the rate is half of its maximum) in “purified protein [1]” stood at 9.07 ± 1.05 µM; in the series “purified protein [2]” it was 122 ± 4 µM; in the series “purified protein [3]”, 168 ± 25 µM.
